Tests used:
[1] = tested on: FOP patient derived cells; assay: Evaluation of binding inhibitors: chondrocyte differentiation of FOP patient derived cells in copresence of human activin A; format: cell-based; conditions: copresence of 30 ng/mL human activin A, 6 days; vs activin-treated group
Protocol: Patient iPS cell line-derived mesenchymal stem cell-like cells were prepared by the same method as Example 1. The mesenchymal stem cell-like cells were cultured for 6 days by the same method as Example 3, for differentiation to chondrocytes. The effect of each factor on differentiation to chondrocytes was examined, with neutralizing antibody for human activin A (product of R&D Systems, Inc., trade name: Human/Mouse/Rat Activin A βA subunit Antibody), follistatin (product of R&D Systems, Inc., trade name: Recombinant Human Follistatin 315 as 30-344), follistatin-like 3 (product of R&D Systems, Inc., trade name: Recombinant Human Follistatin-related Gene Protein/FLRG), ACVR2A-Fc chimeric protein (product of R&D Systems, Inc., trade name: Recombinant Human Activin RIIA Fc Chimera (CHO)), or ACVR2B-Fc chimeric protein (product of R&D Systems, Inc., trade name: Recombinant Human Activin RIIB Fc Chimera), in the copresence of 30 ng/mL of human activin A. The ACVR2A-Fc chimeric protein is a fusion protein in which a polypeptide fragment having the amino acid sequence of positions 20 to 134 of the amino acid sequence listed as SEQ ID NO: 12, and the Fc region of the human-derived antibody, are bonded via a linker sequence (Ile-Glu-Gly-Arg-Met-Asp). The ACVR2B-Fc chimeric protein is a fusion protein in which a polypeptide fragment having the amino acid sequence of positions 19 to 134 of the amino acid sequence listed as SEQ ID NO: 14, and the Fc region of the human-derived antibody, are bonded via a linker sequence (Ile-Glu-Gly-Arg-Met-Asp). The extent of differentiation to chondrocytes was evaluated by Alcian blue staining and sulfated glycosaminoglycan assay, similar to Example 3. In FIG. 6(B), the bar graph indicates the mean values for each treated group, and the error bars represent S.D.

[2] = tested on: FOP patient derived cells; assay: Differentiation to chondrocytes (Alcian blue, sulfated glycosaminoglycan assay) of FOP patient derived cells; format: cell-based, human
Protocol: (§1) Mesenchymal stem cell-like cells from a patient iPS cell line and a gene-corrected iPS cell clone were each prepared by the same method as Example 1. The mesenchymal stem cell-like cells were cultured for 6 days under the medium conditions used in the method of Umeda et al. (Sci. Rep., 2012, 2, 455), for differentiation to chondrocytes. During differentiation, 100 ng/mL of human activin A, 100 ng/mL of human BMP-7 or 1 ng/mL of human TGF-β3 (product of R&D Systems, Inc., trade name: Recombinant Human TGF-beta 3) was added and the effect of each factor on differentiation to chondrocytes was examined. The extent of differentiation to chondrocytes was measured with Alcian blue dye and a sulfated glycosaminoglycan assay kit (product of Biocolor, Ltd., trade name: Blyscan Glycosaminoglycan Assay Kit). In FIG. 4, the bar graph indicates the mean values for each treated group, and the error bars represent S.D.

[3] = tested on: gene-corrected clone derived cells; assay: Differentiation to chondrocytes (sulfated glycosaminoglycan assay) of gene-corrected clone derived cells; format: cell-based, human; conditions: 100 ng/mL BMP-7 or 1 ng/mL TGF-β3, 6 days, vs untreated group
Protocol: as §1

B1: follistatin: Recombinant Human Follistatin 315 (R&D Systems) (protein)
chain: GNCWLRQAKNGRCQVLYKTELSKEECCSTGRLSTSWTEEDVNDNTLFKWMIFNGGAPNCIPCKETCENVDCGPGKKCRMNKKNKPRCVCAPDCSNITWKGPVCGLDGKTYRNECALLKARCKEQPELEVQYQGRCKKTCRDVFCPGSSTCVVDQTNNAYCVTCNRICPEPASSEQYLCGNDGVTYSSACHLRKATCLLGRSIGLAYEGKCIKAKSCEDIQCTGGKKCLWDFKVGRGRCSLCDELCPDSKSDEPVCASDNATYASECAMKEAACSSGVLLEVKHSGSCNSISEDTEEEEEDEDQDYSFPISSILEW
- differentiation of FOP patient derived cells to chondrocytes (Alcian blue staining, sulfated glycosaminoglycan assay) [1]: inhibited

B2: follistatin-like 3: Recombinant Human Follistatin-related Gene Protein/FLRG (R&D Systems) (protein, listed as Homo sapiens)
chain: MRPGAPGPLWPLPWGALAWAVGFVSSMGSGNPAPGGVCWLQQGQEATCSLVLQTDVTRAECCASGNIDTAWSNLTHPGNKINLLGFLGLVHCLPCKDSCDGVECGPGKACRMLGGRPRCECAPDCSGLPARLQVCGSDGATYRDECELRAARCRGHPDLSVMYRGRCRKSCEHVVCPRPQSCVVDQTGSAHCVVCRAAPCPVPSSPGQELCGNNNVTYISSCHMRQATCFLGRSIGVRHAGSCAGTPEEPPGGESAEEEENFV
- differentiation of FOP patient derived cells to chondrocytes (Alcian blue staining, sulfated glycosaminoglycan assay) [1]: inhibited

B3: TGF-β3: Recombinant Human TGF-beta 3 (R&D Systems) (protein, UniProt P10600 301-412, looked up)
Transforming growth factor …: ALDTNYCFRNLEENCCVRPLYIDFRQDLGWKWVHEPKGYYANFCSGPCPYLRSADTTHSTVLGLYNTLNPEASASPCCVPQDLEPLTILYYVGRTPKVEQLSNMVVKSCKCS
- difference in cartilage induction between FOP patient derived cells and gene-corrected clone derived cells ([2]; 1 ng/mL TGF-β3, 6 days): no significant difference
- cartilage induction effect compared to the effect exhibited by activin A on FOP patient derived cells ([2]; 100 ng/mL BMP-7 or 1 ng/mL TGF-β3, 6 days): weaker
- cartilage induction (sulfated glycosaminoglycan assay) ([2]; FOP patient derived cells, 100 ng/mL activin A, 100 ng/mL BMP-7 or 1 ng/mL TGF-β3, 6 days, vs untreated group): significantly enhanced
- cartilage induction (sulfated glycosaminoglycan assay) [3]: significantly enhanced

B4: ACVR2B-Fc chimeric protein: Fusion of positions 19 to 134 of SEQ ID NO: 14 with human antibody Fc region via linker Ile-Glu-Gly-Arg-Met-Asp (protein)
chain: SGRGEAETRECIYYNANWELERTNQSGLERCEGEQDKRLHCYASWRNSSGTIELVKKGCWLDDFNCYDRQECVATEENPQVYFCCCEGNFCNERFTHLPEAGGPEVTYEPPPTAPTIEGRMD
modifications: left off: a dimerising Fc or GST
- differentiation of FOP patient derived cells to chondrocytes (Alcian blue staining, sulfated glycosaminoglycan assay) [1]: inhibited

From US10260068B2, “Prophylactic agent and therapeutic agent for fibrodysplasia ossificans progressiva” (Sumitomo Dainippon Pharma Co., Ltd., priority 2014, dated 2019)
